From US20250262297A1, “ALLERGY ANTIGEN AND EPITOPE THEREOF” (HOYU CO., LTD., priority 2017, published 2025)

System: IgE antibodies from soybean-allergic patients
Assay: Immunoblotting of two-dimensional electrophoresis pattern of soybean proteins with patient serum
Assay type: binding, human
Conditions: spot in 2D electrophoresis gel of soybean proteins; patient serum compared with healthy subject serum
Method in brief: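 Soybean proteins were separated by 2-D electrophoresis, transferred to PVDF and blocked in 5% skim milk/PBST. Blots were probed with 3% serum from soybean-allergic patients or healthy subjects for 1 h at room temperature, then anti-human IgE-HRP (1:2500). Chemiluminescent substrate was used, with fluorescent image scanning.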

B1: chaperonin CPN60-2, mitochondrial (protein)
chain: MYRFATSLASKARIARSSTQQIGSRVTWNRNYAAKDIKFGVEARALMLKGVEELADAVKVTMGPKGRNVVIEQSFGAPKVTKDGVTVAKSIEFKDKVKNIGASLVKQVANATNDVAGDGTTCATILTKAIFTEGCKSVAAGMNAMDLRRGINMAVDAVVTNLKSRARMISTSEEIAQVGTISANGEREIGELIAKAMEKVGKEGVITISDGKTLYNELEVVEGMKLDRGYISPYFITNQKNQKCELEDPLIIIHEKKISSINAIVKVLELALKRQRSLLIVAEDVESDALATLILNKLRAGIKVCAIKAPGFGENRKSGLQDLAVLTGGQLITEELGLNLEKVDLDLFGSCKKITISKDDTVILDGAGDKKAIEERCEQIRSAIENSTSDYDKEKLQERLAKLSGGVAVLKIGGASEAEVGEKKDRVTDALNATKAAVEEGIVPGGGVALLYASSELDKLQTANFDQKIGVQIIQNALKTPVHTIASNAGVEGAVVVGKLLEQNDPDLGYDAAKGEYVDMVKTGIIDPLKVIRTALVDAASVSSLMTTTEAVVSELPKDDKDVPAMGGGMGGMDY
modifications: Glycine max
notes: spot also identified as chaperonin CPN60-2, mitochondrial-like isoform X1
specific binding to IgE antibodies from soybean-allergic patients: specific binding
